Experimental data reported in US20200199241A1 (Chugai, published 2020).
One block for each binder: values may come before it.

Key:
Assay in all cases: SPR (Biacore);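 note: antibody variants captured on sensor chip, Fcγ receptor flowed over at 25 °C, bound receptor normalized to amount of captured antibody, expressed relative to reference antibody set as 100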
human FcγRIIb = target: T1, human FcγRIIb (human, UniProt P31994 43-217, limits assumed)
T1 construct: also called FcgRIIb
T1 sequence: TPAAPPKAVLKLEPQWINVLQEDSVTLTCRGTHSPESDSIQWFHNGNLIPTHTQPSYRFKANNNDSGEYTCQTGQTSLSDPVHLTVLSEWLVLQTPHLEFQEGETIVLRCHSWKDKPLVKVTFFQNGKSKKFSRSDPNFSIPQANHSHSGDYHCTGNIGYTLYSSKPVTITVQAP

human FcγRIIIa(F) = target: T2, human FcγRIIIa(F) (human, UniProt P08637 17-208, limits assumed)
T2 construct: also called FcgRIIIaF; allotype F158
T2 sequence (P08637 other isoform, or with tags, fused parts or gaps limits assumed): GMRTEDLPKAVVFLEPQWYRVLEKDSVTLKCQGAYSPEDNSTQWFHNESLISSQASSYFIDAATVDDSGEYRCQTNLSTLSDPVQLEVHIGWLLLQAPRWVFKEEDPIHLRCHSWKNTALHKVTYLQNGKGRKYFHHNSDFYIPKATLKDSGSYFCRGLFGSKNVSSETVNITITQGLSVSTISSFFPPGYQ

human FcγRIIa(H) = target: T3, human FcγRIIa(H) (human, UniProt P12318 36-217)
T3 construct: also called FcgRIIaH; FcγRIIa type H
T3 sequence: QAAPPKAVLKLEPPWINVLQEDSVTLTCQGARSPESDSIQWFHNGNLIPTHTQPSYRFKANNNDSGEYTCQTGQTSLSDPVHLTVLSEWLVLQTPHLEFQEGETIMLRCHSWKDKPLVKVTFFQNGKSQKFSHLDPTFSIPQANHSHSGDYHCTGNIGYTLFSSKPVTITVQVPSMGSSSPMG

human FcγRIa = target: T4, human FcγRIa (human, UniProt P12314 16-292, limits assumed)
T4 construct: also called FcgRIa; FcγRI (CD64)
T4 sequence (P12314 16-292 limits assumed): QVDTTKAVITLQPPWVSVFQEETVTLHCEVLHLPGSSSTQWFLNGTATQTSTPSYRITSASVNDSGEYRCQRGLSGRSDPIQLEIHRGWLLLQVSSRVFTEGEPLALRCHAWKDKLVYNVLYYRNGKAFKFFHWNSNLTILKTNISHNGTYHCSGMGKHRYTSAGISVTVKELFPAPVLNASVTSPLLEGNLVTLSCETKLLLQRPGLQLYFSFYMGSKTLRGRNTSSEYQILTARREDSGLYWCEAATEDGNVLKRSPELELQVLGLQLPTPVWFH

human FcγRIIa(R) = target: T5, human FcγRIIa(R) (human, UniProt P12318 36-217)
T5 construct: also called FcgRIIaR; FcγRIIa type R
T5 chain: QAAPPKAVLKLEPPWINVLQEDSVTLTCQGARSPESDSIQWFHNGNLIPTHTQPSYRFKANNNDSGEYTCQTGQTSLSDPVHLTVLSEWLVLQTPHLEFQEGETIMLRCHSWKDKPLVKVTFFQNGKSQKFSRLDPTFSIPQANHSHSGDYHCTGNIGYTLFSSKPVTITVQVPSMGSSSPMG

B1: GpH7-B3 variant P238Q/GpL16-k0 (antibody, human IgG1)
heavy: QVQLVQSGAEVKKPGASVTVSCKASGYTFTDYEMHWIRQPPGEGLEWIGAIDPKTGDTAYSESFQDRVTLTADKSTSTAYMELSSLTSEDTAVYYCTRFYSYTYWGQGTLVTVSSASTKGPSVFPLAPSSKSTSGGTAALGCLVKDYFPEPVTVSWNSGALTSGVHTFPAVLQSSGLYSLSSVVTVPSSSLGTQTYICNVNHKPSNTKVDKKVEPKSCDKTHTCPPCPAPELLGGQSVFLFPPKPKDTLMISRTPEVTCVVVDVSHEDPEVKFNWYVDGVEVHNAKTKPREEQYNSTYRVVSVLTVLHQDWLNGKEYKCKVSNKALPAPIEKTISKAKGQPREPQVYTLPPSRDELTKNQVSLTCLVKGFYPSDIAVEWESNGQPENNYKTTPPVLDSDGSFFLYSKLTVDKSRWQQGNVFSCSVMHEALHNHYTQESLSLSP
light: DIVMTQSPLSLPVTPGEPASISCQASESLVHSNRNTYLHWYLQKPGQSPQLLIYKVSNRFSGVPDRFSGSGSGTDFTLKISRVEAEDVGVYYCSQNTHVPPTFGQGTKVEIE
notes: copies: 2 + 2
relative binding activity (human FcγRIIb): 43 % of GpH7-B3/GpL16-k0
relative binding activity (human FcγRIIIa(F)): -1 % of GpH7-B3/GpL16-k0
relative binding activity (human FcγRIIa(H)): 4 % of GpH7-B3/GpL16-k0
relative binding activity (human FcγRIa): 84 % of GpH7-B3/GpL16-k0
relative binding activity (human FcγRIIa(R)): 19 % of GpH7-B3/GpL16-k0

B2: GpH7-B3 variant P238R/GpL16-k0 (antibody, human IgG1)
heavy: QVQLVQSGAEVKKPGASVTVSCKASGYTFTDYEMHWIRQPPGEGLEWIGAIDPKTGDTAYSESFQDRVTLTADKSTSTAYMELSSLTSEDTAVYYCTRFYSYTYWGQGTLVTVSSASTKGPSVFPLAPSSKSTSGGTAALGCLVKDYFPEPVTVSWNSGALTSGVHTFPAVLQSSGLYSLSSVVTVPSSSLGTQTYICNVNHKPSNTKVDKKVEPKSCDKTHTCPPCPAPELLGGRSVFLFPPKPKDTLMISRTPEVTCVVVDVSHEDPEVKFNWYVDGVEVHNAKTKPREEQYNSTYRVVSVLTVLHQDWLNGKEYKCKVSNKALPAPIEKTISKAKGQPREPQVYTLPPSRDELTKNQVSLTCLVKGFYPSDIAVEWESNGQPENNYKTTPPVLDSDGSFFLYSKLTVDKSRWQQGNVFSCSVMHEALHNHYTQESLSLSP
light: DIVMTQSPLSLPVTPGEPASISCQASESLVHSNRNTYLHWYLQKPGQSPQLLIYKVSNRFSGVPDRFSGSGSGTDFTLKISRVEAEDVGVYYCSQNTHVPPTFGQGTKVEIE
notes: copies: 2 + 2
relative binding activity (human FcγRIIb): -2 % of GpH7-B3/GpL16-k0
relative binding activity (human FcγRIIIa(F)): -1 % of GpH7-B3/GpL16-k0
relative binding activity (human FcγRIIa(H)): -1 % of GpH7-B3/GpL16-k0
relative binding activity (human FcγRIa): 1 % of GpH7-B3/GpL16-k0
relative binding activity (human FcγRIIa(R)): -1 % of GpH7-B3/GpL16-k0

B3: GpH7-B3 variant P238S/GpL16-k0 (antibody, human IgG1)
heavy: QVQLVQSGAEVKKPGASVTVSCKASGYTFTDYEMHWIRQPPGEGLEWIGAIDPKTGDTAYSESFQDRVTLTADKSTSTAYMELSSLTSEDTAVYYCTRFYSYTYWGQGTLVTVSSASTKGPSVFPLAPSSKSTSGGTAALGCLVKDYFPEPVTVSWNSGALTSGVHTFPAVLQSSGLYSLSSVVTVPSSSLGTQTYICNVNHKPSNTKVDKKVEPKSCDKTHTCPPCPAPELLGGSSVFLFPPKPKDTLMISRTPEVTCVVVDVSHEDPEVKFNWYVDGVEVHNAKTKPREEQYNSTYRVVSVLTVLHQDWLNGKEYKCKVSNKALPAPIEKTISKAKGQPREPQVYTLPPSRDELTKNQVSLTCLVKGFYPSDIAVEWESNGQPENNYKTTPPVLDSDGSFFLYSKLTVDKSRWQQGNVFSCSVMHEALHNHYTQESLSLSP
light: DIVMTQSPLSLPVTPGEPASISCQASESLVHSNRNTYLHWYLQKPGQSPQLLIYKVSNRFSGVPDRFSGSGSGTDFTLKISRVEAEDVGVYYCSQNTHVPPTFGQGTKVEIE
notes: copies: 2 + 2
relative binding activity (human FcγRIIb): 28 % of GpH7-B3/GpL16-k0
relative binding activity (human FcγRIIIa(F)): 3 % of GpH7-B3/GpL16-k0
relative binding activity (human FcγRIIa(H)): 13 % of GpH7-B3/GpL16-k0
relative binding activity (human FcγRIa): 91 % of GpH7-B3/GpL16-k0
relative binding activity (human FcγRIIa(R)): 32 % of GpH7-B3/GpL16-k0

B4: GpH7-B3 variant P238T/GpL16-k0 (antibody, human IgG1)
heavy: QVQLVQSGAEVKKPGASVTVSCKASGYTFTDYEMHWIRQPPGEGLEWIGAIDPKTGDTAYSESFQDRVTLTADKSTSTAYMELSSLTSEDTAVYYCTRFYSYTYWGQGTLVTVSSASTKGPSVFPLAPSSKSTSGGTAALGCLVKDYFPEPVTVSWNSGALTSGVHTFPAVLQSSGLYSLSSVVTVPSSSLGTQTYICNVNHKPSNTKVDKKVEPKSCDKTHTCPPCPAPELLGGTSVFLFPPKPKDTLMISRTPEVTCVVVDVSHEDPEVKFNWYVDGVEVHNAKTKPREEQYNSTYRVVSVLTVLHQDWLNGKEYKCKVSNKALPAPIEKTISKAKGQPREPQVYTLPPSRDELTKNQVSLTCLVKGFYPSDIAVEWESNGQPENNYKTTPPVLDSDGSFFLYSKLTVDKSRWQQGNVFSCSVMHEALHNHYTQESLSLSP
light: DIVMTQSPLSLPVTPGEPASISCQASESLVHSNRNTYLHWYLQKPGQSPQLLIYKVSNRFSGVPDRFSGSGSGTDFTLKISRVEAEDVGVYYCSQNTHVPPTFGQGTKVEIE
notes: copies: 2 + 2
relative binding activity (human FcγRIIb): 8 % of GpH7-B3/GpL16-k0
relative binding activity (human FcγRIIIa(F)): 0 % of GpH7-B3/GpL16-k0
relative binding activity (human FcγRIIa(H)): 6 % of GpH7-B3/GpL16-k0
relative binding activity (human FcγRIa): 67 % of GpH7-B3/GpL16-k0
relative binding activity (human FcγRIIa(R)): 19 % of GpH7-B3/GpL16-k0

B5: GpH7-B3 variant P238W/GpL16-k0 (antibody, human IgG1)
heavy: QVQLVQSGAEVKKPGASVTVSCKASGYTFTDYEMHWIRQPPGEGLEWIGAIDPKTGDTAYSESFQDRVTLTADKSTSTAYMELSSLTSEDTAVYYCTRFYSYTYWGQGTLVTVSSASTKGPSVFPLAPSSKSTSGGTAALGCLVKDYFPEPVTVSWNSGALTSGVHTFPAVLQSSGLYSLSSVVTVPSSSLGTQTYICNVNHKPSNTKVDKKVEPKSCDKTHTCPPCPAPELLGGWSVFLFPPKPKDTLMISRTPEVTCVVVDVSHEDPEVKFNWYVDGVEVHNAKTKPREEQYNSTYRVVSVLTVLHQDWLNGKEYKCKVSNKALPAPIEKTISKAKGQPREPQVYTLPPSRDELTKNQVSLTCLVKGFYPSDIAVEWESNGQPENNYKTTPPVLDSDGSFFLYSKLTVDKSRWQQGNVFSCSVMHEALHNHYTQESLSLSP
light: DIVMTQSPLSLPVTPGEPASISCQASESLVHSNRNTYLHWYLQKPGQSPQLLIYKVSNRFSGVPDRFSGSGSGTDFTLKISRVEAEDVGVYYCSQNTHVPPTFGQGTKVEIE
notes: copies: 2 + 2
relative binding activity (human FcγRIIb): 13 % of GpH7-B3/GpL16-k0
relative binding activity (human FcγRIIIa(F)): -1 % of GpH7-B3/GpL16-k0
relative binding activity (human FcγRIIa(H)): 2 % of GpH7-B3/GpL16-k0
relative binding activity (human FcγRIa): 99 % of GpH7-B3/GpL16-k0
relative binding activity (human FcγRIIa(R)): 25 % of GpH7-B3/GpL16-k0

B6: GpH7-B3 variant S239F/GpL16-k0 (antibody, human IgG1)
heavy: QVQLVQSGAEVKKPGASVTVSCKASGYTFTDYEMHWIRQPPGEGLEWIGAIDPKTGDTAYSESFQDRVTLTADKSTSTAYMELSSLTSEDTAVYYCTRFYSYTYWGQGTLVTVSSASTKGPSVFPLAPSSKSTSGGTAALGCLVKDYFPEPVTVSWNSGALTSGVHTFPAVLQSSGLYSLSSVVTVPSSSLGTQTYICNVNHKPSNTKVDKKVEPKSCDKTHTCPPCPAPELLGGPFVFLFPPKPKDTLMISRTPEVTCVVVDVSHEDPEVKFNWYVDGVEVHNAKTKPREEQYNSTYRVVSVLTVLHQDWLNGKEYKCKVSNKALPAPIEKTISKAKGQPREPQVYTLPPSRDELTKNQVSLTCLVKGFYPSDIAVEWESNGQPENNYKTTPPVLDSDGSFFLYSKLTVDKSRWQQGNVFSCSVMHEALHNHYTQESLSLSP
light: DIVMTQSPLSLPVTPGEPASISCQASESLVHSNRNTYLHWYLQKPGQSPQLLIYKVSNRFSGVPDRFSGSGSGTDFTLKISRVEAEDVGVYYCSQNTHVPPTFGQGTKVEIE
notes: copies: 2 + 2
relative binding activity (human FcγRIIb): 12 % of GpH7-B3/GpL16-k0
relative binding activity (human FcγRIIIa(F)): 3 % of GpH7-B3/GpL16-k0
relative binding activity (human FcγRIIa(H)): 11 % of GpH7-B3/GpL16-k0
relative binding activity (human FcγRIa): 77 % of GpH7-B3/GpL16-k0
relative binding activity (human FcγRIIa(R)): 20 % of GpH7-B3/GpL16-k0

B7: GpH7-B3 variant S239H/GpL16-k0 (antibody, human IgG1)
heavy: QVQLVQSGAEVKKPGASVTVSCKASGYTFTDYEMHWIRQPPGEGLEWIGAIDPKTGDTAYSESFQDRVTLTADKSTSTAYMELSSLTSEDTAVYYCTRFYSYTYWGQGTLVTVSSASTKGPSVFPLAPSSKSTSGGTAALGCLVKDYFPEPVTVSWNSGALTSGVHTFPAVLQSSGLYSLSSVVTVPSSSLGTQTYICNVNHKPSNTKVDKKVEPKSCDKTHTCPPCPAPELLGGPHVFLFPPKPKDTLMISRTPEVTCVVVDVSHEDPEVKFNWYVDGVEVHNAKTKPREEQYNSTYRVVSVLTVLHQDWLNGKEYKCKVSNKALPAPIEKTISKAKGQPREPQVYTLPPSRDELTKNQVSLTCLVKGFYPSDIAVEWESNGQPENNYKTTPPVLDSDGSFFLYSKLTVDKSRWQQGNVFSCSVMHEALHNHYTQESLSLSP
light: DIVMTQSPLSLPVTPGEPASISCQASESLVHSNRNTYLHWYLQKPGQSPQLLIYKVSNRFSGVPDRFSGSGSGTDFTLKISRVEAEDVGVYYCSQNTHVPPTFGQGTKVEIE
notes: copies: 2 + 2
relative binding activity (human FcγRIIb): 24 % of GpH7-B3/GpL16-k0
relative binding activity (human FcγRIIIa(F)): 6 % of GpH7-B3/GpL16-k0
relative binding activity (human FcγRIIa(H)): 19 % of GpH7-B3/GpL16-k0
relative binding activity (human FcγRIa): 64 % of GpH7-B3/GpL16-k0
relative binding activity (human FcγRIIa(R)): 38 % of GpH7-B3/GpL16-k0

Other lines, results leading:

relative binding activity (human FcγRIIb): 1 % of GpH7-B3/GpL16-k0
relative binding activity (human FcγRIIIa(F)): 0 % of GpH7-B3/GpL16-k0
relative binding activity (human FcγRIIa(H)): 4 % of GpH7-B3/GpL16-k0
relative binding activity (human FcγRIa): 6 % of GpH7-B3/GpL16-k0
relative binding activity (human FcγRIIa(R)): 4 % of GpH7-B3/GpL16-k0
B8: GpH7-B3 variant S239K/GpL16-k0 (antibody, human IgG1)
heavy: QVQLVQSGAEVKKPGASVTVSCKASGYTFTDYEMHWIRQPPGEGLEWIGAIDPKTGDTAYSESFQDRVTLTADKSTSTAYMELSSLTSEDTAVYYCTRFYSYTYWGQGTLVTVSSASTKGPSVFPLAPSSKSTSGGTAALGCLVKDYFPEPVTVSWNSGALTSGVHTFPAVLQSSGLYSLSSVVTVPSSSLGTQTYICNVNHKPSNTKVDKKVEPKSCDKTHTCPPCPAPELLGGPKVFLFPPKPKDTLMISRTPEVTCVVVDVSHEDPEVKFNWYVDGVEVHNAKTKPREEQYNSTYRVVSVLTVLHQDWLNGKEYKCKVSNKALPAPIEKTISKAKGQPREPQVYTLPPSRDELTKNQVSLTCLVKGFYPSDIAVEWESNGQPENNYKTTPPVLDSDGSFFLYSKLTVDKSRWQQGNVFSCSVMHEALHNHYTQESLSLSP
light: DIVMTQSPLSLPVTPGEPASISCQASESLVHSNRNTYLHWYLQKPGQSPQLLIYKVSNRFSGVPDRFSGSGSGTDFTLKISRVEAEDVGVYYCSQNTHVPPTFGQGTKVEIE
notes: copies: 2 + 2

relative binding activity (human FcγRIIb): 61 % of GpH7-B3/GpL16-k0
relative binding activity (human FcγRIIIa(F)): -1 % of GpH7-B3/GpL16-k0
relative binding activity (human FcγRIIa(H)): 4 % of GpH7-B3/GpL16-k0
relative binding activity (human FcγRIa): 89 % of GpH7-B3/GpL16-k0
relative binding activity (human FcγRIIa(R)): 49 % of GpH7-B3/GpL16-k0
B9: GpH7-B3 variant S239P/GpL16-k0 (antibody, human IgG1)
heavy: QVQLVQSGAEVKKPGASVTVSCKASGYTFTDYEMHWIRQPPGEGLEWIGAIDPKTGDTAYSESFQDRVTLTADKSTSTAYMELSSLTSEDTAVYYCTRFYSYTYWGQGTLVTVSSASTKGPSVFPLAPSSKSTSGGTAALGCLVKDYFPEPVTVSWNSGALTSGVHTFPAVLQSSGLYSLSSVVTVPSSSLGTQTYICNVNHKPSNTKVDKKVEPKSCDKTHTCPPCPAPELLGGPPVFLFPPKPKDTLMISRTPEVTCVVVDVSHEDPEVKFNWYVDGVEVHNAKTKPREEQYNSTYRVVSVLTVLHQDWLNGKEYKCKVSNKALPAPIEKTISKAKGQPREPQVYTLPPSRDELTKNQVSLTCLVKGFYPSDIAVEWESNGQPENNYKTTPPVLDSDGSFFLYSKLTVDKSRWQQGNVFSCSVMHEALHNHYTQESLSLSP
light: DIVMTQSPLSLPVTPGEPASISCQASESLVHSNRNTYLHWYLQKPGQSPQLLIYKVSNRFSGVPDRFSGSGSGTDFTLKISRVEAEDVGVYYCSQNTHVPPTFGQGTKVEIE
notes: copies: 2 + 2

relative binding activity (human FcγRIIb): 68 % of GpH7-B3/GpL16-k0
relative binding activity (human FcγRIIIa(F)): 29 % of GpH7-B3/GpL16-k0
relative binding activity (human FcγRIIa(H)): 58 % of GpH7-B3/GpL16-k0
relative binding activity (human FcγRIa): 96 % of GpH7-B3/GpL16-k0
relative binding activity (human FcγRIIa(R)): 57 % of GpH7-B3/GpL16-k0
B10: GpH7-B3 variant S239Q/GpL16-k0 (antibody, human IgG1)
heavy: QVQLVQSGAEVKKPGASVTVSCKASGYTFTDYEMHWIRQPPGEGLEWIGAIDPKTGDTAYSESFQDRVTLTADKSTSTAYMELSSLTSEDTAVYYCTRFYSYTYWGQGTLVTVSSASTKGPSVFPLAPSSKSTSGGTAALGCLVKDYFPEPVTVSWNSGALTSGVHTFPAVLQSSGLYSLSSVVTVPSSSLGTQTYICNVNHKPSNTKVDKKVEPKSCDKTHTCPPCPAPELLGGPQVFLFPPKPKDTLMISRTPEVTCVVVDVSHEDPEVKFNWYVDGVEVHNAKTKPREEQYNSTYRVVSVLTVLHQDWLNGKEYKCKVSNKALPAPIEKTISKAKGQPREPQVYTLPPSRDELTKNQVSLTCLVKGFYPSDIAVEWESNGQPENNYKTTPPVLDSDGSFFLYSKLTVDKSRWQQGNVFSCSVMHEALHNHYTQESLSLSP
light: DIVMTQSPLSLPVTPGEPASISCQASESLVHSNRNTYLHWYLQKPGQSPQLLIYKVSNRFSGVPDRFSGSGSGTDFTLKISRVEAEDVGVYYCSQNTHVPPTFGQGTKVEIE
notes: copies: 2 + 2
